Target: T1, APS1 (small subunit of ADP-glucose pyrophosphorylase, AGPase; AT5G48300), endogenous in Arabidopsis plants (Arabidopsis thaliana, UniProt P55228 72-520, limits assumed)
T1 construct: Endogenous plant protein
T1 sequence (looked up): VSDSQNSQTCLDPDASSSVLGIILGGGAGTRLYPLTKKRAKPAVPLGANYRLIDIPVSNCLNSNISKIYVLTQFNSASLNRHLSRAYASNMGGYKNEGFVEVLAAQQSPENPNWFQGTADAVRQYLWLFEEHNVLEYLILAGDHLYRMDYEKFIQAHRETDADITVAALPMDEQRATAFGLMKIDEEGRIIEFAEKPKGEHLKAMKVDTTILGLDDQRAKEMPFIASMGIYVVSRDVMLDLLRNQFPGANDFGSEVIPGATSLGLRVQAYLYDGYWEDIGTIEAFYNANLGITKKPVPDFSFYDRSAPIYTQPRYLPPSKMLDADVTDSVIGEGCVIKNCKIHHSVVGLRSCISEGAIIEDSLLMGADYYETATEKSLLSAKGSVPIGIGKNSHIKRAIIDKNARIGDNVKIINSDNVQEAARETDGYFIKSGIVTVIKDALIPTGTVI
Experiment: in planta trapping of intermolecular disulfide reaction intermediates; non-reducing SDS-PAGE, anti-HA immunoblot

B1: ACHT4ΔC (Arabidopsis ACHT4 lacking the 47-amino acid C-terminus), fused to the HA3 affinity tag (enzyme, not shown: small tags and cut ends)
chain: SSAITAQTTLRIGTAQKWWEKGLKDNMREISSAQELVDSLTNAGDKLVVVDFFSPGCGGCKALHPKICQFAEMNPDVQFLQVNYEEHKSMCYSLGVHVLPFFRFYRGSQGRVCSFSCTNATIKKFRDALAKHGPDRCSLGPTKGLEEKELVALAAN
notes: also called AtACHT4ΔC; AtACHT4-C-Del
binding result: no binding

Source: patent US20190119696A1 (YEDA RESEARCH AND DEVELOPMENT, published 2019)
